Target: the molecule itself
Assay: AUC

B1: Mdv1 CC^231–299 (domain or fragment, yeast)
chain: GPQTLVNSLEFLNIQKNSTLSEIRDIEVEVENLRQKKEKLLGKIANIEQNQLLLEDNLKQIDDRLDFLEEY
- stoichiometry N: 1.95

Source: publication PMC3002026 (The Journal of Cell Biology, 2010)
